Laboratory results as given in the supplement of paper PMC10065799, “High-throughput profiling of sequence recognition by tyrosine kinases and SH2 domains using bacterial peptide display” (eLife, 2023).

Each sequence was assayed on AncSZ (assay: phosphorylation enrichment, bacterial display (enrichment ratio); higher = better substrate or ligand; peptides without Tyr show the background).
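Also: 11-residue human phosphosite peptides and single-mutation variants displayed on the E. coli surface, counted by deep sequencing, each peptide's frequency after selection divided by its frequency in the unselected input library; frequency after pTyr selection over input frequency; kinase dosed for 20-30% of maximal phosphorylation in three min.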

Sequence	phosphorylation enrichment
QGLRLYRPHLP [BTK_Y617_A622P]	0.772
HFGCVYYGTLL [MET_Y1093_H1094Y]	1.88
KANEYYPVVII [ADAMTS18_Y765_L769I]	2.63
KDHPDYKFQPR [SOX10_Y171_YF]	0.694
MCDKEYFSVHN [MET_Y1234_Y1230C_YF]	1.31
HLVSEYQQFQD [TUBB3_Y422_D417H_YF]	1.07
VLTSKYCGGGG [HBA1_Y141_R142C]	0.603
MGSFNYLGFPR [SPTLC2_Y178_A182P_YF]	0.795
NFATLHLKIFH [PDE6B_Y219_Y219H_YF]	1.26
NNPAFYVLEGV [INPPL1_Y987_YF]	0.956
FSQQTYFRVSN [ABCD1_Y180_YF]	0.902
KPPFSYNALIR [FOXG1_Y186_M191R]	0.695
DPEATYTTSGG [EPHA2_Y772]	1.22
LYVDVYGPSVP [NUBPL_Y109_D105Y]	1.48
MKGDYYRSLAE [YWHAG_Y131_Y133S]	1.1
GRVLGYGTFGK [FLT4_Y853_A855T]	0.553
EKKQTYGSCRK [LACTB_Y473_R469K]	0.533
LRIAVYHEILI [CREBBP_Y1450_T1447I]	5.75
NKVQFYIPDMN [NCR1_Y84_K82Q]	0.801
KDGSGYISAAE [CALM1_Y100_N98S]	0.648
HKNNNYEPNLF [BRCA2_Y57]	0.739
KKYPDYIQIAM [SGMS2_Y59]	1.45
IYRASYVPFAA [RBM47_Y541_G538R]	1.04
PTDGVYVMPTV [MYO7A_Y1668_S1666G]	6.14
GGFNNYGFGND [HNRNPH3_Y159_YF]	0.654
ATAKGYEPDAS [OTC_Y223_P220A]	0.883
PMWHPYKVDVT [TP53TG5_Y255]	1.09
FPSLPYSPVSS [CAMKK2_Y128_C123Y_YF]	0.789
PPGRSYSPCDF [TNS1_Y793_Y796C_YF]	1.01

These sequences were tested against EPHB1 (UniProt P54762) in the same assay as above.
EPHB1, sequence (P54762 whole entry, looked up): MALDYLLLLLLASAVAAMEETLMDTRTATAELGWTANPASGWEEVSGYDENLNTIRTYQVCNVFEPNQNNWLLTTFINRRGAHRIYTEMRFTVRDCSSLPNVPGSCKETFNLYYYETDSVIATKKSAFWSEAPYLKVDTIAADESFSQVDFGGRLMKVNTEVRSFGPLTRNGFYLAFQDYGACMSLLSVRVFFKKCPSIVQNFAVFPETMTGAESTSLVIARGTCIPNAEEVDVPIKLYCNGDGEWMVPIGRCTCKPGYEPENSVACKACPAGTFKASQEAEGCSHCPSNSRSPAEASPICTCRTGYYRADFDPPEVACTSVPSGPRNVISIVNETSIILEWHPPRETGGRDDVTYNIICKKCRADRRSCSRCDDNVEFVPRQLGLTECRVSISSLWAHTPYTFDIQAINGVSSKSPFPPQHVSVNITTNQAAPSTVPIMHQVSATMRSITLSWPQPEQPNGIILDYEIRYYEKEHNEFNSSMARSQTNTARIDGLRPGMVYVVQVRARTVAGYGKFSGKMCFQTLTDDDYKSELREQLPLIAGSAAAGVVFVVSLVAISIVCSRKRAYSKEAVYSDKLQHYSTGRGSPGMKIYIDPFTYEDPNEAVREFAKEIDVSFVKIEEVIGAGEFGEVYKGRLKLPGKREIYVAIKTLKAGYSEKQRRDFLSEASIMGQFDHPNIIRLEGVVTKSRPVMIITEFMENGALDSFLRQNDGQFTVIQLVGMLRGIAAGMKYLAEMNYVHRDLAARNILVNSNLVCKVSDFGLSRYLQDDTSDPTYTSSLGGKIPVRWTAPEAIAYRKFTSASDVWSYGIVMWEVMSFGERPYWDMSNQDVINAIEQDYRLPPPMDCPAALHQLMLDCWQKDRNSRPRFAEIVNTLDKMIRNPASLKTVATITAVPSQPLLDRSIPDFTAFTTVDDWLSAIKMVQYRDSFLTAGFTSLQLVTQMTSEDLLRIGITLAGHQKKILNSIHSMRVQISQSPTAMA

Sequence	phosphorylation enrichment
QGLRLYRPHLP [BTK_Y617_A622P]	0.444
HFGCVYYGTLL [MET_Y1093_H1094Y]	1.5
KANEYYPVVII [ADAMTS18_Y765_L769I]	1.65
KDHPDYKFQPR [SOX10_Y171_YF]	0.466
MCDKEYFSVHN [MET_Y1234_Y1230C_YF]	0.692
HLVSEYQQFQD [TUBB3_Y422_D417H_YF]	0.819
VLTSKYCGGGG [HBA1_Y141_R142C]	0.474
MGSFNYLGFPR [SPTLC2_Y178_A182P_YF]	1.88
NFATLHLKIFH [PDE6B_Y219_Y219H_YF]	0.607
NNPAFYVLEGV [INPPL1_Y987_YF]	0.5
FSQQTYFRVSN [ABCD1_Y180_YF]	0.654
KPPFSYNALIR [FOXG1_Y186_M191R]	0.478
DPEATYTTSGG [EPHA2_Y772]	0.533
LYVDVYGPSVP [NUBPL_Y109_D105Y]	3.63
MKGDYYRSLAE [YWHAG_Y131_Y133S]	0.422
GRVLGYGTFGK [FLT4_Y853_A855T]	0.372
EKKQTYGSCRK [LACTB_Y473_R469K]	0.415
LRIAVYHEILI [CREBBP_Y1450_T1447I]	5.55
NKVQFYIPDMN [NCR1_Y84_K82Q]	0.501
KDGSGYISAAE [CALM1_Y100_N98S]	0.388
HKNNNYEPNLF [BRCA2_Y57]	1.95
KKYPDYIQIAM [SGMS2_Y59]	10
IYRASYVPFAA [RBM47_Y541_G538R]	0.81
PTDGVYVMPTV [MYO7A_Y1668_S1666G]	2.01
GGFNNYGFGND [HNRNPH3_Y159_YF]	0.733
ATAKGYEPDAS [OTC_Y223_P220A]	0.523
PMWHPYKVDVT [TP53TG5_Y255]	0.753
FPSLPYSPVSS [CAMKK2_Y128_C123Y_YF]	0.452
PPGRSYSPCDF [TNS1_Y793_Y796C_YF]	0.895

What follows are sequences tested against EPHB2 (UniProt P29323) in the same assay as above.
EPHB2, sequence (P29323 whole entry, looked up): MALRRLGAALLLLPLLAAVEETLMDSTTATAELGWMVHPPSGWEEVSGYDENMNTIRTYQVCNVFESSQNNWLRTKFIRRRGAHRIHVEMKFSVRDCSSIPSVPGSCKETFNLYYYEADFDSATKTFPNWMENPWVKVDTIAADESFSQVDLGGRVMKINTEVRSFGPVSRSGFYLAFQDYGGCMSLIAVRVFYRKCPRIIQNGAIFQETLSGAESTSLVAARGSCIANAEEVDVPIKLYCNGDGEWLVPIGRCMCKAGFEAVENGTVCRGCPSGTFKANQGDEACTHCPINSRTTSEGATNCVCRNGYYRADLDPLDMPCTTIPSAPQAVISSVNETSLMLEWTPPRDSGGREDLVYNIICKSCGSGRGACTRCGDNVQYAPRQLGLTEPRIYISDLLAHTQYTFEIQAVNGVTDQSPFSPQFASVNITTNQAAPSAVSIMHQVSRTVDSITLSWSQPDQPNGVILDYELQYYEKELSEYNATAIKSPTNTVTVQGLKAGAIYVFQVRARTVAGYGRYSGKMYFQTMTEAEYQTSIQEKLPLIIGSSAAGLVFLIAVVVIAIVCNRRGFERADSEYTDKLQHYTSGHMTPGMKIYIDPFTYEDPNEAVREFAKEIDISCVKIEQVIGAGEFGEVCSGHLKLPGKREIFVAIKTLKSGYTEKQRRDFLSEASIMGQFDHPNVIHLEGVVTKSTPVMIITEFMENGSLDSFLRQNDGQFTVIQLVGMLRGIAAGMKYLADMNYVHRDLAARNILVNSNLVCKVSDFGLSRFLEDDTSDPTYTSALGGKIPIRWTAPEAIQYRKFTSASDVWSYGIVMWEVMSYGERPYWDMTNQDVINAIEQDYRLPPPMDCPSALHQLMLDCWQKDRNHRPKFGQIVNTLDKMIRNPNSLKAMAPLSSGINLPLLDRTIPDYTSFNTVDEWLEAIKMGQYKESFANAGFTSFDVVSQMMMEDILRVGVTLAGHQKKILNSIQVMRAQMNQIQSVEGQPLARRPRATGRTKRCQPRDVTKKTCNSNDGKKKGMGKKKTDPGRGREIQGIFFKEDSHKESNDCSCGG

Sequence	phosphorylation enrichment
QGLRLYRPHLP [BTK_Y617_A622P]	0.568
HFGCVYYGTLL [MET_Y1093_H1094Y]	1.42
KANEYYPVVII [ADAMTS18_Y765_L769I]	2.08
KDHPDYKFQPR [SOX10_Y171_YF]	0.501
MCDKEYFSVHN [MET_Y1234_Y1230C_YF]	0.482
HLVSEYQQFQD [TUBB3_Y422_D417H_YF]	0.916
VLTSKYCGGGG [HBA1_Y141_R142C]	0.419
MGSFNYLGFPR [SPTLC2_Y178_A182P_YF]	0.917
NFATLHLKIFH [PDE6B_Y219_Y219H_YF]	0.74
NNPAFYVLEGV [INPPL1_Y987_YF]	0.581
FSQQTYFRVSN [ABCD1_Y180_YF]	0.564
KPPFSYNALIR [FOXG1_Y186_M191R]	0.55
DPEATYTTSGG [EPHA2_Y772]	0.57
LYVDVYGPSVP [NUBPL_Y109_D105Y]	1.09
MKGDYYRSLAE [YWHAG_Y131_Y133S]	0.508
GRVLGYGTFGK [FLT4_Y853_A855T]	0.538
EKKQTYGSCRK [LACTB_Y473_R469K]	0.356
LRIAVYHEILI [CREBBP_Y1450_T1447I]	3.56
NKVQFYIPDMN [NCR1_Y84_K82Q]	0.533
KDGSGYISAAE [CALM1_Y100_N98S]	0.409
HKNNNYEPNLF [BRCA2_Y57]	0.89
KKYPDYIQIAM [SGMS2_Y59]	1.69
IYRASYVPFAA [RBM47_Y541_G538R]	0.571
PTDGVYVMPTV [MYO7A_Y1668_S1666G]	1.48
GGFNNYGFGND [HNRNPH3_Y159_YF]	0.902
ATAKGYEPDAS [OTC_Y223_P220A]	0.523
PMWHPYKVDVT [TP53TG5_Y255]	0.54
FPSLPYSPVSS [CAMKK2_Y128_C123Y_YF]	0.445
PPGRSYSPCDF [TNS1_Y793_Y796C_YF]	0.858

What follows are sequences tested against FGFR1 (UniProt P11362) in the same assay as above.
FGFR1, sequence (P11362 whole entry, looked up): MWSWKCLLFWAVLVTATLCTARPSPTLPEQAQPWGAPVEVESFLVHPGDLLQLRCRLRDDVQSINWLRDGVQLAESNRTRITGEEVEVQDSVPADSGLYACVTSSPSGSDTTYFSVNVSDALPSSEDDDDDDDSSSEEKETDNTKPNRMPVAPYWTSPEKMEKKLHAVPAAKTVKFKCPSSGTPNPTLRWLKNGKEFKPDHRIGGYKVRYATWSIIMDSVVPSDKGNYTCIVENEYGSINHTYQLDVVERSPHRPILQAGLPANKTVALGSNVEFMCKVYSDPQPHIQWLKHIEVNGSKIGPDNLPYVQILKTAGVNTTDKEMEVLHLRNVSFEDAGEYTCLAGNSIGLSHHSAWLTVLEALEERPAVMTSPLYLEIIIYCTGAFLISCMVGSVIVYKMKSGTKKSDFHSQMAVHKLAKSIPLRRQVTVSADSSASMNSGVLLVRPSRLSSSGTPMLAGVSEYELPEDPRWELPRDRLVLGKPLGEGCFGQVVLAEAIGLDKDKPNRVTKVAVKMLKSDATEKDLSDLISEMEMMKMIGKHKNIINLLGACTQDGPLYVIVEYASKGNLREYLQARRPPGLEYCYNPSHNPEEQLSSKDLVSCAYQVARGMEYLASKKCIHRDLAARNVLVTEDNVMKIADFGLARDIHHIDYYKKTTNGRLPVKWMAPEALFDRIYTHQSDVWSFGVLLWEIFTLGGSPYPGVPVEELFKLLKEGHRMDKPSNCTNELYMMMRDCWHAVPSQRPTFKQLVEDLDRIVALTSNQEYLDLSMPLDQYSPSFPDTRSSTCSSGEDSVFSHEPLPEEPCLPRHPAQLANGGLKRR

Sequence	phosphorylation enrichment
QGLRLYRPHLP [BTK_Y617_A622P]	0.48
HFGCVYYGTLL [MET_Y1093_H1094Y]	2.69
KANEYYPVVII [ADAMTS18_Y765_L769I]	12.8
KDHPDYKFQPR [SOX10_Y171_YF]	0.519
MCDKEYFSVHN [MET_Y1234_Y1230C_YF]	1.78
HLVSEYQQFQD [TUBB3_Y422_D417H_YF]	0.741
VLTSKYCGGGG [HBA1_Y141_R142C]	0.384
MGSFNYLGFPR [SPTLC2_Y178_A182P_YF]	0.566
NFATLHLKIFH [PDE6B_Y219_Y219H_YF]	0.652
NNPAFYVLEGV [INPPL1_Y987_YF]	0.653
FSQQTYFRVSN [ABCD1_Y180_YF]	1.23
KPPFSYNALIR [FOXG1_Y186_M191R]	0.505
DPEATYTTSGG [EPHA2_Y772]	0.502
LYVDVYGPSVP [NUBPL_Y109_D105Y]	2.8
MKGDYYRSLAE [YWHAG_Y131_Y133S]	0.96
GRVLGYGTFGK [FLT4_Y853_A855T]	0.338
EKKQTYGSCRK [LACTB_Y473_R469K]	0.395
LRIAVYHEILI [CREBBP_Y1450_T1447I]	5.94
NKVQFYIPDMN [NCR1_Y84_K82Q]	0.579
KDGSGYISAAE [CALM1_Y100_N98S]	0.456
HKNNNYEPNLF [BRCA2_Y57]	1.2
KKYPDYIQIAM [SGMS2_Y59]	9.52
IYRASYVPFAA [RBM47_Y541_G538R]	0.562
PTDGVYVMPTV [MYO7A_Y1668_S1666G]	2.95
GGFNNYGFGND [HNRNPH3_Y159_YF]	0.514
ATAKGYEPDAS [OTC_Y223_P220A]	0.481
PMWHPYKVDVT [TP53TG5_Y255]	0.561
FPSLPYSPVSS [CAMKK2_Y128_C123Y_YF]	0.539
PPGRSYSPCDF [TNS1_Y793_Y796C_YF]	0.716
